Data published in patent US20140314711A1.

T1: human IL-22 receptor complex IL22R1 and IL10R2 (human) (UniProt Q8N6P7)
T1 sequence (looked up) 1: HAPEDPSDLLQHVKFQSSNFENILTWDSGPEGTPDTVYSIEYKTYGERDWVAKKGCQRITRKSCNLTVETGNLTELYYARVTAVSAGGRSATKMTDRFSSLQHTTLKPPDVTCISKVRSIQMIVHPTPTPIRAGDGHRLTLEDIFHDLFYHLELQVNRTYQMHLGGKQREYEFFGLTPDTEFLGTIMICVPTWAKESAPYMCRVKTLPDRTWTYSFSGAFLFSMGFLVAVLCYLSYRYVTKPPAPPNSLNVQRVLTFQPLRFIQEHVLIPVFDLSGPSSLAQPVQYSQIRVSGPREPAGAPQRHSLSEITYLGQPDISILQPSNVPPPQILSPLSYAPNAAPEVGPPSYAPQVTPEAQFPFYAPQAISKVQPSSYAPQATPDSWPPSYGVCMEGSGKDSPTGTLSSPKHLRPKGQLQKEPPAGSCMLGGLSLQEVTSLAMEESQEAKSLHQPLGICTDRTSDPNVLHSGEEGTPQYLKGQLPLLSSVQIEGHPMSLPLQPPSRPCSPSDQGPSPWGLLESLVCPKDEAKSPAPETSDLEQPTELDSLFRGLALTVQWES
T1 sequence (looked up) 2: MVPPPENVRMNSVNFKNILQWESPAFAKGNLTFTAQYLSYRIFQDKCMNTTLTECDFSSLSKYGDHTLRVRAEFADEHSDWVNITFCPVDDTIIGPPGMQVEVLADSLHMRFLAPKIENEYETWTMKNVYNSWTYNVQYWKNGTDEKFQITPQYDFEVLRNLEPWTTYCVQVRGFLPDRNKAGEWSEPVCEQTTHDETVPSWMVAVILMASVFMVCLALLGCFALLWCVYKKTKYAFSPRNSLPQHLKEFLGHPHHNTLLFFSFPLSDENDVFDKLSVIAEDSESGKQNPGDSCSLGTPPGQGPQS

B1: IL-22 Fc construct 18 (huIgG1, linker …, N297G) (Fc fusion, not shown: a dimerising Fc or GST)
chain: APISSHCRLDKSNFQQPYITNRTFMLAKEASLADNNTDVRLIGEKLFHGVSMSERCYLMKQVLNFTLEEVLFPQSDRFQPYMQEVVPFLARLSNRLSTCHIEGDDLHIQRNVQKLKDTVKKLGESGEIKAIGELDLLFMSLRNACIKKVEPKSSDKTHTCPPCP
B2: IL-22 Fc construct 13 (huIgG1, linker …) (Fc fusion, not shown: a dimerising Fc or GST)
chain: APISSHCRLDKSNFQQPYITNRTFMLAKEASLADNNTDVRLIGEKLFHGVSMSERCYLMKQVLNFTLEEVLFPQSDRFQPYMQEVVPFLARLSNRLSTCHIEGDDLHIQRNVQKLKDTVKKLGESGEIKAIGELDLLFMSLRNACIKVDKKVEPKSSDKTHTCPPCP
B3: IL-22 Fc construct 12 (huIgG1, linker …) (Fc fusion, not shown: a dimerising Fc or GST)
chain: APISSHCRLDKSNFQQPYITNRTFMLAKEASLADNNTDVRLIGEKLFHGVSMSERCYLMKQVLNFTLEEVLFPQSDRFQPYMQEVVPFLARLSNRLSTCHIEGDDLHIQRNVQKLKDTVKKLGESGEIKAIGELDLLFMSLRNACIDKKVEPKSSDKTHTCPPCP
B4: IL-22 Fc construct 24 (huIgG1, linker …, produced in E. coli) (Fc fusion, not shown: a dimerising Fc or GST)
chain: APISSHCRLDKSNFQQPYITNRTFMLAKEASLADNNTDVRLIGEKLFHGVSMSERCYLMKQVLNFTLEEVLFPQSDRFQPYMQEVVPFLARLSNRLSTCHIEGDDLHIQRNVQKLKDTVKKLGESGEIKAIGELDLLFMSLRNACIEPKSSDKTHTCPPCP

Each binder was assayed against T1, human IL-22 receptor complex IL22R1 and IL10R2 (human) (assay: cell-based or functional assay).

Binder | EC50 (STAT3 luciferase reporter assay) [nM]
B1 | 0.02
B2 | 0.025
B3 | 0.025
B4 | 0.016
